B1: Twister Ribozyme (parent)
chain: AACACUGCCAAUGCCGGUCCCAAGCCCGGAUAAAAGUGGAGGGGGCGG

The values that follow come from the RNAGym collection of RNA variant scans (doi:10.7554/elife.80360).

The series covers variants of B1. Kind of series: self-cleavage, relative activity (ratio to wild type); higher = more cleavage; co-transcriptional.
AACACUGCCAAUGCCGGUCCAAAGCCCGGAAAAAAGUGGAGGGGGCGG [C21A U31A]: the self-cleavage stood at 0.0618.
With AACACUGCAUAUGCCGGUCCCAAGCCCGGAUAAAAGUGGAGGGGGCGG [C9A A10U] the figure was 0.646.
For AAGACUGCCAAUGCCGGUCCCAAGCCCGUAUAAAAGUGGAGGGGGCGG [C3G G29U] the value was 0.394; for AACACUGCCAAUGCCGGUCCAAAGCCCGGCUAAAAGUGGAGGGGGCGG [C21A A30C], 0.079; for AACACUGCCAAUGCCGGUCCCAAGCCCGAAUAAAAGUGGAGCGGGCGG [G29A G42C], 0.46.
As to AACACUGCCAAUGCCGGUCCCAAGCCCGGAUAAAAGUGGAGCGAGCGG [G42C G44A], the self-cleavage amounted to 0.396.
With AACAUUGCCAAUGCCGGUCCCAAGCGCGGAUAAAAGUGGAGGGGGCGG [C5U C26G] the figure was 0.0996.
As to AACACUGCCAAUGCCGGUCCCAAGCCAGCAUAAAAGUGGAGGGGGCGG [C27A G29C], the self-cleavage is 0.0808.
For AACACUGCCAAUGCCGGUCCCAAUCCCGGAUAAUAGUGGAGGGGGCGG [G24U A34U], the self-cleavage came out at 0.116.
With AACACUGCCAAUGCCGGUCCCAAGCCCGGAUAAAAGUGGAGGGGGCGC [G48C], the self-cleavage turned out to be 1.15.
With AACACUGCCAACGCCGGUCCCAAGCCCGGAUAAAAGUGGAGGGGGCGG [U12C] the figure was 0.961.
With AGUACUGCCAAUGCCGGUCCCAAGCCCGGAUAAAAGUGGAGGGGGCGG [A2G C3U] the figure was 0.0609; with AACACUGCCAAUGACGGUCCUAAGCCCGGAUAAAAGUGGAGGGGGCGG [C14A C21U], 0.138.
For the variant AACACUGUCAAUGCCGGUCCAAAGCCCGGAUAAAAGUGGAGGGGGCGG [C8U C21A], the self-cleavage stood at 0.0385.
On to AACACUGCCAAUGCCGGUCACAAGCCCGGAUAAAGGUGGAGGGGGCGG [C20A A35G], for which the self-cleavage is 0.0546.
For the variant AACACUGCCAAUGCCGGUCCCAAGCUCGGAUAAAAGUGGAGGGGGGGG [C26U C46G], the self-cleavage came to 0.307.
For AACACUGCCCAUGCCGGUCCCAAGCCCGGAUAAAAGUGGAGGGGUCGG [A10C G45U] the value was 0.842.
Take AACACUGCCAAUGCCGGUGCCAAGCCCGGAUAAAAGUGGAGGGGCCGG [C19G G45C]: the self-cleavage turned out to be 0.231.
For AACACUGCCAAUGCCGGUCCCAAGCCCGGAUACAAGUGGCGGGGGCGG [A33C A40C] the value was 0.131; for AACCCUGCCAAUGCCAGUCCCAAGCCCGGAUAAAAGUGGAGGGGGCGG [A4C G16A], 0.0955.
On to CACACUGACAAUGCCGGUCCCAAGCCCGGAUAAAAGUGGAGGGGGCGG [A1C C8A], for which the self-cleavage turned out to be 0.196.
For GACACUACCAAUGCCGGUCCCAAGCCCGGAUAAAAGUGGAGGGGGCGG [A1G G7A] the value was 0.216; for AACACUGCCAAUGCCGGUCCCAAACCCGGAUCAAAGUGGAGGGGGCGG [G24A A32C], 0.0703.
As to AACGCUGCCAAUGCCGGUCCCAAGCCCGGAUAAAAGUGUAGGGGGCGG [A4G G39U], the self-cleavage turned out to be 0.153.
With AACACUGCCAAUGCCGGUCCCAAGCCCGGAUAAAAGUAGAGGGGCCGG [G38A G45C], the self-cleavage amounted to 0.65.
In the case of AACAGUGCCAAUGCCGGUCCCAAGCCCGGAUAAAACUGGAGGGGGCGG [C5G G36C], the self-cleavage was found to be 0.966.
With AACACUGCCAAUGCCGGUCCCAAGCCCGUAUGAAAGUGGAGGGGGCGG [G29U A32G] the figure was 0.781; with AACACUGCCAAUGCCGGUCCCAAGCCCCGAUAAAAGUGGAGGGGGCGG [G28C], 0.894.
For AACACUGCCACUGCCGGUCCCAAGCCCGGAAAAAAGUGGAGGGGGCGG [A11C U31A], the self-cleavage worked out at 0.502.
Regarding AACACUGCCAAUGCCGGUCCCGAGCCCGGAAAAAAGUGGAGGGGGCGG [A22G U31A], the self-cleavage was found to be 0.196.
For AACAAUGCCAAUGCCGGUCCCAAGCCCAGAUAAAAGUGGAGGGGGCGG [C5A G28A], the self-cleavage was found to be 0.232.
AACACUGCCAAUGCCGGUACCAAGCCCGGAUAACAGUGGAGGGGGCGG [C19A A34C]: the self-cleavage worked out at 0.0755.
Take AACACUACCAAUGCCGAUCCCAAGCCCGGAUAAAAGUGGAGGGGGCGG [G7A G17A]: the self-cleavage came out at 0.083.
With AACACUGCCAAUGCCGGUCCCAAGCCCGGACAAAAGUGGAGGGGGCGC [U31C G48C] the figure was 1.2; with AACACUGCCAAUGCCGGUCGCAAGCCAGGAUAAAAGUGGAGGGGGCGG [C20G C27A], 0.102.
For the variant AACACUGCCAAUGCCGGUCCCAAGUCCGGAUAAAAGUGGAGGGGACGG [C25U G45A], the self-cleavage was 0.587.
With AACACUGCCAAUGCCGGUCCCAAGGCCGGAUAAAAGUGGAGGUGGCGG [C25G G43U] the figure was 0.133.
With AACACUGCCAAUGCCGGUCCCAAGCCCGGAUAAAAGCUGAGGGGGCGG [U37C G38U] the figure was 0.516.
For AACACUGCCAAUGCCGGUCCCAAGCCCGGAUAAUAGUGAAGGGGGCGG [A34U G39A] the value was 0.199; for AACACUGCCAAUGCCGAUCCCAAGCCCGGAUAAAAGUGGAGGGAGCGG [G17A G44A], 0.671; for AACACUGGCAAUGCCGGUCCCAAGCCGGGAUAAAAGUGGAGGGGGCGG [C8G C27G], 0.0686.
In the case of AACACUGCCAAUGCCGGUCCCAAGACCGGAUAAAAGGGGAGGGGGCGG [C25A U37G], the self-cleavage is 0.0674.
In the case of AACACUGCCAAUGCCGGUCCCAAGCGCGGAUAAAAGUAGAGGGGGCGG [C26G G38A], the self-cleavage is 0.0967.
On to AACACUGCCAAUGCCGGUCGCAAGCGCGGAUAAAAGUGGAGGGGGCGG [C20G C26G], for which the self-cleavage worked out at 0.093.
With AACACAGCCAAUGCCGGUCCCAAGCCCGGUUAAAAGUGGAGGGGGCGG [U6A A30U] the figure was 0.981; with AACACUGCCAAUGCCGGUCCCAAGCGCGGAUAAAAGUGGAAGGGGCGG [C26G G41A], 0.128; with AACAGUGCCAAUGCCGGUCCCAAGCCCGGAUAACAGUGGAGGGGGCGG [C5G A34C], 0.117.
Turning to AACACUGCCAAUGCCGGUCCCAAGCCCGGAUAAAAGUGGAGGGAGCGA [G44A G48A], the self-cleavage is 0.927.
Take AACACUGCCAAAGCCGGUCCCAAGCCCGGAUAAAAGUGGAGGGGGCAG [U12A G47A]: the self-cleavage turned out to be 1.13.
As for AUCACUGCCAAUGCCGGUCCCAAGCCCGGAUAAAAGUGGAGGGGGCCG [A2U G47C], the self-cleavage was found to be 0.174.
For AACACUGCCAAUGCCGGUCCCAAGCCCGGAUAACAGUCGAGGGGGCGG [A34C G38C] the value was 0.157.
For the variant AACACUGCGAAUGCCGGUCCCAAUCCCGGAUAAAAGUGGAGGGGGCGG [C9G G24U], the self-cleavage came to 0.0888.
With AACACUGCCAAUGCCGGUCCCUAGCCCGGGUAAAAGUGGAGGGGGCGG [A22U A30G] the figure was 0.783; with AACACUGCCAAUGCCGGUCCCAAGCCCGGAUAAAAGUGGAGGUCGCGG [G43U G44C], 0.767.
